Experimental data published in patent publication US20130315928A1 (published 2013).
Residue numbers refer to the chain shown, from its start.

B1: monoclonal antibody 9A4 A7 D3 (hybridoma CNCM I-4333) (antibody, V domains shown)
VH: EVQLQESGAELVRPGTSVKISCKASGYTFTNYWLGWVKQRPGHGLEWIGDIYPGGGYTNYNEKFKGKATLTADTSSSTAYMQLSSLTSEDSAVYFCARTPLYGSSYGGFAYWGQGTLVTVSA
VL: KTQTTSSLSASLGDRVTISCSASQGISNYLNWYQQKPDGTVKLLIYYTSSLHSGVPSRFSGSGSGTDYSLTISNLEPEDIATYYCQQYSKLPWTFGGGTKLEIK
notes: Hybridoma antibody raised against ovine LH; The VL as determined begins KTQTTSS; also called MAb D3; IgM D3
B2: monoclonal antibody 9A4 D4 B6 (hybridoma CNCM I-4334) (antibody, V domains shown)
VH: B1 VH with E6Q
VL: DIVMTQATSSLSASLGDRVTISCSASQGISNYLNWYQQKPDGTVKLLIYYTSSLHSGVPSRFSGSGSGTDYSLTISNLEPEDIATYYCQQYSKLPWTFGGGTKLEIK
notes: Hybridoma antibody raised against ovine LH; also called MAb B6; IgM B6
B3: monoclonal antibody 1A6 C4 G11 (hybridoma CNCM I-4332) (antibody, V domains shown)
VH: B1 VH with Q3K, E6Q
VL: B2 VL with V3Q, A7T
notes: Hybridoma antibody raised against ovine LH; also called MAb G11; IgM G11

How the values were obtained:
[1] = target: T1, equine choriogonadotropin (eCG) or PMSG (equine, UniProt P01220 25-120; P08751 21-169); assay: ELISA on commercial eCG, antibody at 10 µg/ml
T1 construct: They are written as one protein; also called commercial eCG (Synchro Part, CEVA); purified eCG (6000 IU/mg)
T1 sequence (P01220 25-120 limits assumed, chain 1 of 2): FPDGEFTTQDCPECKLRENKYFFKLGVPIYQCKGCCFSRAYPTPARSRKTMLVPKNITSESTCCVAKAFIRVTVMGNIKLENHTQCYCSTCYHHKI
T1 sequence (P08751 21-169 limits assumed, chain 2 of 2): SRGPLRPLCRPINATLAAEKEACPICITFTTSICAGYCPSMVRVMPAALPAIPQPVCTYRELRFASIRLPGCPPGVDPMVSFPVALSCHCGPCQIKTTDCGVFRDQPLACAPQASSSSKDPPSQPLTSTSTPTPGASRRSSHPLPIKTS
Description: (§1) After washing five times, a secondary antibody (peroxidase-coupled mouse anti-IgM, Jackson Laboratories) was incubated for 1 h at 37° C. (100 μl/well). After washing five times, the peroxidase is developed with TMB (100 μl/well), for 30 min at room temperature and then stopped with 1M H₂SO₄ (50 μl/well).
(§2) In the same way, the antibodies were evaluated on the commercial eCG (Synchro Part, CEVA, Libourne, France) used in treatments for induction of ovulation in sheep and goats. An isotypic control (IgM directed against another type of antigen very remote from the gonadotropic hormones). Each antibody was incubated at a concentration of 10 μg/ml and 1 μg/ml.

[2] = target: bovine luteinizing hormone (bovine, UniProt P01217 25-120; P04651 21-141); assay: ELISA, hormone adsorbed at 2 µg/ml, anti-IgM peroxidase; relative to oLH
Description: as §1

[3] = target: T2, human chorionic gonadotropin (human, UniProt P01215 25-116; P0DN86 21-165); assay: as above
T2 construct: Alpha/beta heterodimer; also called hCG
T2 sequence (P01215 25-116, chain 1 of 2, other chains not shown): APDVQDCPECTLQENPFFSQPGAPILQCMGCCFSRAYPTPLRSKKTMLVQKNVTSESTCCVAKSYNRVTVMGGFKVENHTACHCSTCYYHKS
Description: as §1

[4] = target: porcine luteinizing hormone (porcine, UniProt P01219 25-120; P01232 21-141); assay: as above
Description: as §1

[5] = target: T3, human follicle-stimulating hormone (human, UniProt P01215 25-116; P01225 19-129); assay: ELISA, hormone adsorbed at 2 µg/ml, anti-IgM peroxidase; relative to oFSH
T3 construct: Alpha/beta heterodimer; also called hFSH; human FSH
T3 sequence (P01215 25-116, chain 1 of 2): as the sequence (P01215 25-116, chain 1 of 2, other chains not shown) above
T3 sequence (P01225 19-129, chain 2 of 2): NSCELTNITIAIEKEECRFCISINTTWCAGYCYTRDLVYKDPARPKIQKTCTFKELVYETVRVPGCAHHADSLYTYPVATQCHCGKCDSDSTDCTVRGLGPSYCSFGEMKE
Description: as §1

[6] = target: bovine follicle-stimulating hormone (bovine, UniProt P01217 25-120; P04837 21-129); assay: as above
Description: as §1

[7] = target: porcine follicle-stimulating hormone (porcine, UniProt P01219 25-120; P01228 21-129); assay: as above
Description: as §1

[8] = target: T1, equine choriogonadotropin (eCG) or PMSG; assay: ELISA on adsorbed commercial eCG
Description: as §1, §2

[9] = target: T4, ovine luteinizing hormone (ovine, UniProt P01218 25-120; P01231 21-141); assay: ELISA, hormone adsorbed at 2 µg/ml, MAb at 0.1-1-10 µg/ml, anti-IgM peroxidase; oLH is the 100% reference
[10] = target: T5, ovine follicle-stimulating hormone (ovine, UniProt P01218 25-120; P01227 20-129); assay: ELISA, hormone adsorbed at 2 µg/ml, MAb at 0.1-1-10 µg/ml, anti-IgM peroxidase; oFSH is the 100% reference
[11] = target: T4, ovine luteinizing hormone; assay: cell-based or functional assay
[12] = target: T5, ovine follicle-stimulating hormone; assay: cell-based or functional assay
[13] = target: T1, equine choriogonadotropin (eCG) or PMSG; assay: ELISA on commercial eCG, antibody at 1 µg/ml
Description: as §1, §2

[14] = target: T1, equine choriogonadotropin (eCG) or PMSG; assay: ELISA on purified eCG (6000 IU/mg)

Binder	OD [1] [OD]	percentage of cross reaction (OD hormone tested / OD ovine hormone x 100) [2] [%]	percentage of cross reaction (OD hormone tested / OD ovine hormone x 100) [3] [%]	percentage of cross reaction (OD hormone tested / OD ovine hormone x 100) [4] [%]	percentage of cross reaction (OD hormone tested / OD ovine hormone x 100) [5] [%]	percentage of cross reaction (OD hormone tested / OD ovine hormone x 100) [6] [%]	percentage of cross reaction (OD hormone tested / OD ovine hormone x 100) [7] [%]	binding result [8]	percentage of cross reaction (OD hormone tested / OD ovine hormone x 100) [9] [%]	percentage of cross reaction (OD hormone tested / OD ovine hormone x 100) [10] [%]	potentiating effect on cAMP secretion (in vitro bioassay) [11] [%]	potentiating effect on cAMP secretion (in vitro bioassay) [12] [%]	OD [13] [OD]	binding result [14]
B1	0.091	121	72	170	100	460	100	no binding (tested: 10 µg/ml and 1 µg/ml)	100	100	150	150	0.102	
B2	0.088	122	97	168	100	430	137	no binding (tested: 10 µg/ml and 1 µg/ml)	100	100	150	150	0.078	
B3	0.09	100	68	140	113	380	230		100	100			0.088	no binding
